Test results taken from publication PMC3149894 (Journal of molecular biology, 2010).

B1: knobΔTAYT protein containing an MA(H)6 tag at the N-terminus (Ad5 fiber knob, TAYT deleted) (domain or fragment, human adenovirus serotype 5, UniProt P11818 387-581, looked up)
chain: GAITVGNKNNDKLTLWTTPAPSPNCRLNAEKDAKLTLVLTKCGSQILATVSVLAVKGSLAPISGTVQSAHLIIRFDENGVLLNNSFLDPEYWNFRNGDLTEGNAVGFMPNLSAYPKSHGKTAKSNIVSQVYLNGDKTKPVTLTITLNGTQETGDTTPSAYSMSFSWDWSGHNYINEIFATSSYTFSYIAQE
B2: knobΔTAYT version with an N-terminal MA(H)6 tag followed by an AviTag (biotinylated) (domain or fragment, human adenovirus serotype 5, UniProt P11818 387-581, looked up)
chain: B1 chain
modifications: biotin (biotinylated in the host by protein biotin ligase from pBirA)
B3: biotinylated knobΔTAYT protein carrying an N-terminal MRGS(H)6 tag followed by an AviTag (domain or fragment, human adenovirus serotype 5, UniProt P11818 387-581, looked up)
chain: B1 chain
modifications: biotin (biotinylated in the host by protein biotin ligase from pBirA)

Biological target: the molecule itself
Assay: SEC-MALS + other: SDS-PAGE

Row | Protein | stoichiometry N
1 | B1 | 3
2 | B2 | 3
3 | B3 | 3
